This is an account of results in the RNAGym collection of RNA variant scans (doi:10.7554/elife.90254).

B1: LINE1-full (parent)
chain: UACGUAGGUGGUUUUCCCCUGAUAGUGCUAAGGGGGCCUGGAAGUUUGGACUGGGCAGAGCUCAACACAGCGUGGCAAAGUGGCUGUGGCUAGACUGCCUCUCUGGAUUCCUCGUCACUCAGCAGGGCAUCUCUGAGAGAAAUGCC

In the data set the parent is B1. Description: self-cleavage, relative activity (ratio to wild type); higher = more cleavage; in vitro, sequencing; the parent is a self-cleaving ribozyme.
With UACGUAGGUGGUUUUCCCCUGAUAGUGCUAAGGGGGCCUGGAAGUUUGGACUGGGCAGAGCUCAGCACAGCGUGGCAAAGUGGCUGUGGCUAGACUGCCUCUCUGGAUUCCUCGUCACUCAGCUGGGCAUCUCUGAGAGAAAUGCC, the self-cleavage is 0.04.

UACGUAGGUGGUUUUCCCCUGAUAGUGCUAAGGGGGCCUGGAAGUUUGGACUGGGCAGAGCUCAGCACAGCGUGGCAAAGUGGCUGUGGCUAGACUGCCUCUCUGGAUUUCUCGUCACUCAGCAGGGCAUCUCUGAGAGAAAUGCC: the self-cleavage turned out to be 0.07.

With UACGUAGGUGGUUUUCCCCUGAUAGUGCUAAGGGGGCCUGGAAGUUUGGACUGGGCAGAGCUCAGCAAAGCGUGGCAAAGUGGCUGUGGCUAGACUGCCUCUCUGGAUUCCUCGUCACUCAGCAGGGCAUCUCUGAGAGAAAUGCC, the self-cleavage worked out at 0.04.

Take UACGUAGGUGGUUUUCCCCUGAUAGUGCUAAGGGGGCCUGGAAGUUUGGACUGGGCAGAGCUCAGCACAGCGUGGCAAAGUGGGUGUGGCUAGACUGCCUCUCUGGAUUCCUCGUCACUCAGCAGGGCAUCUCUGAGAGAAAUGCC: the self-cleavage was 0.17.

Turning to UACGUAGGUGGUUUUCCCCUGAUAGUGCUAAGGGGGCCUGGAAGUUUGGACUGGGCAGAGCUCAGCACAGCGUGGCAAAGUGGUUGUGGCUAGACUGCCUCUCUGGAUUCCUCGUCACUCAGCAGGGCAUCUCUGAGAGAAAUGCC, the self-cleavage stood at 0.06.

UACGUAGGUGGUUUUCCCCUGAUAGUGCUAAGGGGGCCUGGAAGUUUGGACUGGGCAGAGCUCAGCACAGCGUGGCAAAGUGGCUGUGGCUAGACUGCCUCUCUGGAUUCCUCGUCACUCAGCAGGGCAUCUCUGAGAGACAUGCC: the self-cleavage was 0.38.

Take UACGUAGGUGGUUUUCCCCUGAUAGUGCUAAGGGGGCCUGGAAGUUUGGACUGGGCAGAGCUCAGCACAGCGUGGCAAAGUGGCUGUGGCUAGACUGCCUCUCUGGAUUCCUCGUCACUCAGCAGGGCAUGUCUGAGAGAAAUGCC: the self-cleavage came to 0.06.

Regarding UACGUAGGUGGUUUUCCCCUGAUAGUGCUAAGGGGGCCUGGAAGUUUGGACUGGGCAGAGCUCAGCACAGCGUGGCAAAGUGGCUGUGGCUAGACUGCCUCUCUGGAUUCCUCGUCACUCAGCAGGGCAUCUCUGUGAGAAAUGCC, the self-cleavage worked out at 0.07.

In the case of UACGUAGGUGGUUUUCCCCUGAUAGUGCUAAGGGGGCCUGGAAGUUUGGACUGGGCAGAGCUCAGCACAGCGUGGCAAAGUGGCUGUGGCUAGACUGCCUCUCUGGAUUCUUCGUCACUCAGCAGGGCAUCUCUGAGAGAAAUGCC, the self-cleavage is 0.06.

On to UACGUAGGUGGUUUUCCCCUGAUAGUGCUAAGGGGGCCUGGAAGUUUGGACUGGGCAGAGCUCAGCACAGCGUGGUAAAGUGGCUGUGGCUAGACUGCCUCUCUGGAUUCCUCGUCACUCAGCAGGGCAUCUCUGAGAGAAAUGCC, for which the self-cleavage came to 0.02.

In the case of UACGUAGGUGGUUUUCCCCUGAUAGUGCUAAGGGGGCCUGGAAGUUUGGACUGGGCAGAGCUCAGCACAGCGUGGCAAAGUGGCUGUGGCCAGACUGCCUCUCUGGAUUCCUCGUCACUCAGCAGGGCAUCUCUGAGAGAAAUGCC, the self-cleavage stood at 0.

UACGUAGGUGGUUUUCCCCUGAUAGUGCUAAGGGGGCCUGGAAGUUUGGACUGGGCAGAGCUCAGCACAGCGUGGCAAAGUGGCUGUGACUAGACUGCCUCUCUGGAUUCCUCGUCACUCAGCAGGGCAUCUCUGAGAGAAAUGCC: the self-cleavage stood at 0.04.

Regarding UACGUAGGUGGUUUUCCCCUGAUAGUGCUAAGGGGGCCUGGAAGUUUGGACUGGGCAGAGCUCAGCACAGCGUGGCAAAGUGGCUGUGCCUAGACUGCCUCUCUGGAUUCCUCGUCACUCAGCAGGGCAUCUCUGAGAGAAAUGCC, the self-cleavage is 0.03.

UACGUAGGUGGUUUUCCCCUGAUAGUGCUAAGGGGGCCUGGAAGUUUGGACUGGGCAGAGCUCAGCACAGCGUGGCAAAGUGGCAGUGGCUAGACUGCCUCUCUGGAUUCCUCGUCACUCAGCAGGGCAUCUCUGAGAGAAAUGCC: the self-cleavage came to 0.07.

Take UACGUAGGUGGUUUUCCCCUGAUAGUGCUAAGGGGGCCUGGAAGUUUGGACUGGGCAGAGCUCAGCACAGCGUGGCAAAGUGGCCGUGGCUAGACUGCCUCUCUGGAUUCCUCGUCACUCAGCAGGGCAUCUCUGAGAGAAAUGCC: the self-cleavage amounted to 0.13.

As to UACGUAGGUGGUUUUCCCCUGAUAGUGCUAAGGGGGCCUGGAAGUUUGGACUGGGCAGAGCUCAGCACAGCGUGGCAAAGUGGCUGUGGCUAGACUACCUCUCUGGAUUCCUCGUCACUCAGCAGGGCAUCUCUGAGAGAAAUGCC, the self-cleavage worked out at 0.03.

On to UACGUAGGUGGUUUUCCCCUGAUAGUGCUAAGGGGGCCUGGAAGUUUGGACUGGGCAGAGCUCAGCACAGCGUGGCAAAGUGGCUGUGGCUAGACUGCCUCUCUGGAUUCCUCGUCACUCAGCAGGGCAUCUCUGAGGGAAAUGCC, for which the self-cleavage came out at 0.06.

With UACGUAGGUGGUUUUCCCCUGAUAGUGCUAAGGGGGCCUGGAAGUUUGGACUGGGCAGAGCUCAGCACAGCGUGGCAAAGUGGCUGUGGCUAGACUGCCUCUCUGGAUUCCUCGUCACUCAGCAGGGCAUCUUUGAGAGAAAUGCC, the self-cleavage was 0.04.

Consider UACGUAGGUGGUUUUCCCCUGAUAGUGCUAAGGGGGCCUGGAAGUUUGGACUGGGCAGAGCUCAGCACAGUGUGGCAAAGUGGCUGUGGCUAGACUGCCUCUCUGGAUUCCUCGUCACUCAGCAGGGCAUCUCUGAGAGAAAUGCC, for which the self-cleavage is 0.03.

As to UACGUAGGUGGUUUUCCCCUGAUAGUGCUAAGGGGGCCUGGAAGUUUGGACUGGGCAGAGCUCAGCACAGCGGGGCAAAGUGGCUGUGGCUAGACUGCCUCUCUGGAUUCCUCGUCACUCAGCAGGGCAUCUCUGAGAGAAAUGCC, the self-cleavage was found to be 0.08.

Turning to UACGUAGGUGGUUUUCCCCUGAUAGUGCUAAGGGGGCCUGGAAGUUUGGACUGGGCAGAGCUCAGCACAGCGUGGCAAAGUGGCUGUGGCUAGACUGCCUCUCUGGAUUCCUCGUCACUCAGCAGGGCAUCUCUGAGAGGAAUGCC, the self-cleavage came to 0.04.

In the case of UACGUAGGUGGUUUUCCCCUGAUAGUGCUAAGGGGGCCUGGAAGUUUGGACUGGGCAGAGCUCAGCACAGCGUGGCAAAGUGGCUGUGGCUAGACUGCCUCUCUGGAUUCCUCGUCACUCAGCAGGGCAUCUCUGAGAGCAAUGCC, the self-cleavage was 0.13.

For the variant UACGUAGGUGGUUUUCCCCUGAUAGUGCUAAGGGGGCCUGGAAGUUUGGACUGGGCAGAGCUCAGCACAGCGUGGCAAAGUGGCUGUGGCUAGACUGCCUCUCUGGAUUCCUCGUCACUCAGCAGGGCAUCUCUGAGAGUAAUGCC, the self-cleavage turned out to be 0.07.

Consider UACGUAGGUGGUUUUCCCCUGAUAGUGCUAAGGGGGCCUGGAAGUUUGGACUGGGCAGAGCUCAGCACAGCGUGGCAAAGAGGCUGUGGCUAGACUGCCUCUCUGGAUUCCUCGUCACUCAGCAGGGCAUCUCUGAGAGAAAUGCC, for which the self-cleavage turned out to be 0.06.

On to UACGUAGGUGGUUUUCCCCUGAUAGUGCUAAGGGGGCCUGGAAGUUUGGACUGGGCAGAGCUCAGCACAGCGUGGCAAAGUGGCUGUGGCUAGAAUGCCUCUCUGGAUUCCUCGUCACUCAGCAGGGCAUCUCUGAGAGAAAUGCC, for which the self-cleavage is 0.04.

Turning to UACGUAGGUGGUUUUCCCCUGAUAGUGCUAAGGGGGCCUGGAAGUUUGGACUGGGCAGAGCUCAGCACAGCGUGGCAAAGUGGCUGCGGCUAGACUGCCUCUCUGGAUUCCUCGUCACUCAGCAGGGCAUCUCUGAGAGAAAUGCC, the self-cleavage came out at 0.16.

On to UACGUAGGUGGUUUUCCCCUGAUAGUGCUAAGGGGGCCUGGAAGUUUGGACUGGGCAGAGCUCAGCACAGCGUGGCAAAGUGGCUGAGGCUAGACUGCCUCUCUGGAUUCCUCGUCACUCAGCAGGGCAUCUCUGAGAGAAAUGCC, for which the self-cleavage came to 0.06.

UACGUAGGUGGUUUUCCCCUGAUAGUGCUAAGGGGGCCUGGAAGUUUGGACUGGGCAGAGCUCAGCACAGCGUGGCAAAGUGGCUGUGGCUAGACUGCCUCUCUGGAUUCCUCGUCACUCAGCAGGGCAUCUCUGAGAGAAAUUCC: the self-cleavage was determined as 0.06.

For the variant UACGUAGGUGGUUUUCCCCUGAUAGUGCUAAGGGGGCCUGGAAGUUUGGACUGGGCAGAGCUCAGCACAGCGUGGCAAAGUGGCUGUGGCUAGACUGCCUCUCUGGAUUCCUCGUCACUCAGCAGAGCAUCUCUGAGAGAAAUGCC, the self-cleavage is 0.02.

On to UACGUAGGUGGUUUUCCCCUGAUAGUGCUAAGGGGGCCUGGAAGUUUGGACUGGGCAGAGCUCAGCACAGCGUGGCAAAGUGGCUGUGGCUAGACUGCCUCUCUGGAUUCCUCGUCACUCAGCAGGGCCUCUCUGAGAGAAAUGCC, for which the self-cleavage is 0.02.

Regarding UACGUAGGUGGUUUUCCCCUGAUAGUGCUAAGGGGGCCUGGAAGUUUGGACUGGGCAGAGCUCAGCACAGCGUGGCAAAGUGGCUGUGGCUAGACUGCCUCUCUGGAUUCCUCAUCACUCAGCAGGGCAUCUCUGAGAGAAAUGCC, the self-cleavage is 0.04.

As to UACGUAGGUGGUUUUCCCCUGAUAGUGCUAAGGGGGCCUGGAAGUUUGGACUGGGCAGAGCUCAGCACAGCGUGGCAAAGUGGCUGUGGCUAGACUGCCUCUCUGGAUUCCUCGUCACUCAGCAGGUCAUCUCUGAGAGAAAUGCC, the self-cleavage stood at 0.04.

As for UACGUAGGUGGUUUUCCCCUGAUAGUGCUAAGGGGGCCUGGAAGUUUGGACUGGGCAGAGCUCAGCACAGCGUGGCAAAGUGGCUGUGGCUAGACUGCCUCUCUGGAUUCCUCGUCACUCAGCAGGCCAUCUCUGAGAGAAAUGCC, the self-cleavage stood at 0.06.

Regarding UACGUAGGUGGUUUUCCCCUGAUAGUGCUAAGGGGGCCUGGAAGUUUGGACUGGGCAGAGCUCAGCACAGCGUGGCAAAGUGGCUGUGGCUAGACCGCCUCUCUGGAUUCCUCGUCACUCAGCAGGGCAUCUCUGAGAGAAAUGCC, the self-cleavage is 0.08.

For UACGUAGGUGGUUUUCCCCUGAUAGUGCUAAGGGGGCCUGGAAGUUUGGACUGGGCAGAGCUCAGCACAGCGUGGCAAAGUGGCUGUGGCUAGACUGCCUCUCUGGAUUCCUCGUCACUCAGCAGGGCAUCUCUAAGAGAAAUGCC, the self-cleavage is 0.1.

As for UACGUAGGUGGUUUUCCCCUGAUAGUGCUAAGGGGGCCUGGAAGUUUGGACUGGGCAGAGCUCAGCACAGCGUGGCAAAGUGGCUGUGGCUAGACUGCCUCUCUGGAUUCCUCGUUACUCAGCAGGGCAUCUCUGAGAGAAAUGCC, the self-cleavage turned out to be 0.05.

UACGUAGGUGGUUUUCCCCUGAUAGUGCUAAGGGGGCCUGGAAGUUUGGACUGGGCAGAGCUCAGCACAGCGUGGCAAAGUGGCUGUGGCUAGACUGCCUCUCUGGAUUCCUCGUCACUCAGCAGGGCAUCUCUGAGAGAACUGCC: the self-cleavage amounted to 0.08.

As to UACGUAGGUGGUUUUCCCCUGAUAGUGCUAAGGGGGCCUGGAAGUUUGGACUGGGCAGAGCUCAGCACAGCGUGGCAAAGUGGCUGUGGUUAGACUGCCUCUCUGGAUUCCUCGUCACUCAGCAGGGCAUCUCUGAGAGAAAUGCC, the self-cleavage came to 0.03.

Regarding UACGUAGGUGGUUUUCCCCUGAUAGUGCUAAGGGGGCCUGGAAGUUUGGACUGGGCAGAGCUCAGCACAGCGUAGCAAAGUGGCUGUGGCUAGACUGCCUCUCUGGAUUCCUCGUCACUCAGCAGGGCAUCUCUGAGAGAAAUGCC, the self-cleavage is 0.01.
